Literature values in article doi:10.1101/2024.03.27.586990.

Target: Asp27 (UniProt position 27, WNLPADLAWFK)
Conditions: unbound state (no inhibitor), as described by this article

Which pKa does the source give for “Dihydrofolate reductase (DHFR) (Escherichia coli)” here?
Its pKa is 6.5.
